Assay results as given in patent US20160297851A1 (Scripps Research, published 2016).
Where a chain is given by its changes, count along the chain named. Like-named read-outs stand apart in the source and are kept apart here.

How the values were obtained:
[1] = molecular target: E. coli MG1655 SPase (LepB) P84L, in the bacteria (E. coli, UniProt P00803 1-324); assay: cell-based or functional assay
[2] = molecular target: T1, S. aureus SPase (SpsB) P29S, strain PAS8001, in the bacteria (Staphylococcus aureus); assay: cell-based or functional assay
[3] = molecular target: T2, S. aureus NCTC 8325 SPase (SpsB), wild type, in the bacteria (Staphylococcus aureus); assay: cell-based or functional assay
[4] = molecular target: T3, P. aeruginosa PAO1 SPase (LepB), wild type, in the bacteria (Pseudomonas aeruginosa, UniProt Q9I5G7 1-284); assay: cell-based or functional assay
T3 sequence: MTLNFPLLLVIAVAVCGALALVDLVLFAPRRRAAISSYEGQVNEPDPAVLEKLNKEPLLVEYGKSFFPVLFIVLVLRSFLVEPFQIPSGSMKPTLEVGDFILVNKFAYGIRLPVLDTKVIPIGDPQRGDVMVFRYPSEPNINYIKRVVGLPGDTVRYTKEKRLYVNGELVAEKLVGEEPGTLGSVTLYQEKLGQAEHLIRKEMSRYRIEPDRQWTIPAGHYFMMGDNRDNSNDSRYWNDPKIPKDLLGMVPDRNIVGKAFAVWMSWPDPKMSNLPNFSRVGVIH

[5] = molecular target: T4, E. coli MG1655 SPase (LepB), wild type, in the bacteria (Escherichia coli, UniProt P00803 1-324); assay: cell-based or functional assay
[6] = molecular target: T5, Staphylococcus epidermidis RP62A signal peptidase IB, wild type (Staphylococcus epidermidis); assay: cell-based or functional assay
T5 chain: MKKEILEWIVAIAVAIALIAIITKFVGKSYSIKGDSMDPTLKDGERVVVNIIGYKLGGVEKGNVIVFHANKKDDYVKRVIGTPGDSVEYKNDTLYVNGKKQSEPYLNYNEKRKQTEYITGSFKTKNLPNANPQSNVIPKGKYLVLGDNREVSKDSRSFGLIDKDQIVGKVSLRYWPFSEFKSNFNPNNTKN

[7] = molecular target: T6, Staphylococcus epidermidis signal peptidase IB S29P (strain PAS9001) (Staphylococcus epidermidis); assay: cell-based or functional assay
T6 chain: T5 chain with S29P

[8] = molecular target: T7, Staphylococcus epidermidis signal peptidase IB S31P (strain PAS9002) (Staphylococcus epidermidis); assay: cell-based or functional assay
T7 chain: T5 chain with S31P

[9] = molecular target: T6, Staphylococcus epidermidis signal …; assay: cell-based or functional assay
[10] = molecular target: T8, P84S variant of detergent-solubilized full-length E. coli SPase (His6x-tagged) (Escherichia coli, UniProt P00803 1-324); assay: steady-state increase of arylomycin fluorescence (ex 320 nm, em 410 nm) on binding detergent-solubilised full-length E. coli SPase P84S
[11] = molecular target: T8, P84S variant of detergent-solubilized …; assay: steady-state binding by increase of arylomycin fluorescence; detergent-solubilized full-length His-tagged SPase
[12] = molecular target: T9, detergent-solubilized full-length wild type E. coli SPase (His6x-tagged) (Escherichia coli, UniProt P00803 1-324); assay: as above
T9 construct: Plasmid pET23-lepB came from Dr. Mark Paetzel; also called full-length Pro-variant of E. coli SPase; full length His-tagged E. coli SPase; not shown: His6x tag of plasmid pET23-lepB

[13] = molecular target: T9, detergent-solubilized full-length wild …; assay: steady-state increase of arylomycin fluorescence (ex 320 nm, em 410 nm) on binding detergent-solubilised full-length wild type E. coli SPase
[14] = molecular target: E. coli SPase (LepB) P84S, strain PAS0232, in the bacteria (Escherichia coli, UniProt P00803 1-324); assay: cell-based or functional assay
[15] = molecular target: T1, S. aureus SPase (SpsB) P29S, strain …; assay: cell-based or functional assay; remark: listed apart in the source
[16] = molecular target: T10, P. aeruginosa SPase (LepB) P84S, strain PAS2006, in the bacteria (Pseudomonas aeruginosa, UniProt Q9I5G7 1-284); assay: cell-based or functional assay
T10 sequence: T3 sequence

[17] = molecular target: T7, Staphylococcus epidermidis signal …; assay: cell-based or functional assay
[18] = molecular target: T2, S. aureus NCTC 8325 SPase (SpsB), wild …; assay: cell-based or functional assay; remark: listed apart in the source
[19] = molecular target: T3, P. aeruginosa PAO1 SPase (LepB), wild …; assay: cell-based or functional assay; remark: listed apart in the source
[20] = molecular target: T4, E. coli MG1655 SPase (LepB), wild type, …; assay: cell-based or functional assay; remark: listed apart in the source
[21] = molecular target: T5, Staphylococcus epidermidis RP62A signal …; assay: cell-based or functional assay
[22] = molecular target: T6, Staphylococcus epidermidis signal …; assay: cell-based or functional assay

B1: arylomycin C16 (peptide)
peptide: SAGXAY
modifications: C16 fatty acyl (palmitoyl) tail on the N-terminus of N-methyl-D-Ser2; D-Ala3; N-methyl-4-hydroxyphenylglycine (MeHpg) at 5, written X; biaryl bridge between MeHpg5 and Tyr7 (macrocycle MeHpg5-Ala6-Tyr7); free C-terminal carboxyl; the filing counts the lipid tail as position 1
notes: Synthetic lipohexapeptide derived from the natural product arylomycin A2, with a straight C16 fatty acid tail; It has non-standard and D-residues and is macrocyclic, so it is a borderline case of 'peptide'; also called arylomycin A-C16; Arylomycin A2 C16
- MIC [1]: 0.5 µg/mL
- MIC [2]: 2 µg/mL
- MIC [3]: > 64 µg/mL
- MIC [4]: > 64 µg/mL
- MIC [5]: > 64 µg/mL
- MIC [6]: 0.5 µg/mL
- MIC [7]: 8 µg/mL
- fold elevation of MIC compared to the wild type strain [8]: > 256 fold
- fold elevation of MIC compared to the wild type strain [9]: 32 fold
- EC50 (read off the curve) [10]: ~10 nM
- Kd [10]: 5.73 nM
- Kd [11]: 5.7 nM
- Kd [12]: 60 nM
- EC50 (read off the curve) [13]: ~100 nM
- MIC [14]: 2 µg/mL
- MIC [15]: 2 µg/mL
- MIC [16]: 8 µg/mL
- MIC [17]: > 128 µg/mL
- MIC [18]: > 128 µg/mL
- MIC [19]: > 128 µg/mL
- MIC [20]: > 128 µg/mL
- MIC [21]: 0.25 µg/mL
- MIC [22]: 8 µg/mL
